B1: TPR t1 (parent)
chain: GACCAAUCUGCCCUCAGAGCUCGAGAACAUCUUCGGAUGCAGAGGAGGCAGGCUUCGGUGGCGCGAUAGCGCCAACGUCCUCAACCUCCAAUGCAUCCCACCACAUGAUGAUGCCUGAAGAGCCUUGGUUUUUUG

Variants of: B1
Test: polymerase ribozyme fitness, log enrichment relative to wild type (log ratio); higher = more active; in vitro selection for triplet polymerase activity
Method in brief: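 To select mutant libraries of each subunit of a heterodimeric triplet polymerase ribozyme, built by PCR and transcribed, each was annealed with a biotinylated primer, partner subunit and triplets, then incubated frozen at −7 °C. Extended constructs were gel-excised, captured on streptavidin beads and amplified by RT-PCR, in one round carried out in triplicate. Illumina sequencing of input and output libraries kept genotypes with ≥10 input reads and ≥1 read per output. Fitness is the base-2 logarithm of genotype enrichment relative to wild-type enrichment, from inverse-variance-weighted replicate averages.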

Point of comparison: GACCAAUCUGCCCUCAGAGCUCGAGAACAUCUUCGGAUGCAGAGGAGGCAGGCUUCGGUGGCGUGAUAGCGCCAACGUCCUCAACCUCUAAUGCAUCCCACCACAUGAUGAUGCCUGAAGAGUCUUGGUUUUUUG, “polymerase ribozyme fitness (log ratio)” value 0.715. Against it:
- GACCAAUCUGCCCUCAGAGCUCGAGAACAUCUUCGGAUGCAGAGGAGGCAGGCUUCGGUGGCGCGAUAGUGCCAACGUCCCCAACCUCCAAUGCAUCCAACCACAUGAUGAAGCCUGAAGAGCCCUGGUUUUUUG — lower, -6.54
- GACCAAUCUGCCCUCAGAGCUCGAGAACAUCUUCGGAUGCAGAGGAGGUAGGCUUCGGUGGCGCGAUAGCGGCAACGUCCUCAACCUCCAAUGCAUCCCACCACAUGAUGAUGCCUGAAGAGCCUUGGUUUUUUG — lower, -0.927
- GACCAAUCUGCCUUCAGAGAUCGAGAACAUCUUCGGAUGCAGAGGAGGCAGGCUUCGGUGGCGCGAUAGCGACAACGUCCUCAACCUCCAAUGCAUCCCACCACAUGAUGAUGCCUGAAGAGCCUUGGUUUUUUG — lower, -2.75
- GACCAAUCUGCCCUCAGAGCUCGAGAACAUCUUCGGAUGCAGAGGAGGCAGGCUUCGGUGGCGCGAUAGCGCCAACGUCCGAACCCUCCAAUGCAUCCCACCACAUGAUGAUGCCUGAAUAGCCUUGGUUUUUUG — lower, -1.07
- GACCAAUCUGCCCUCAGAGCUCGAGAACAUCUUCGGAUGCAGAGGAGGCCGGCUUCGGUGGCGCGAUAGCACCAACUUCCUCAACCUCCAAUGCAUCCCACCACAUGAUGAUGCCUGAACAGCCUUGGUUUUUUG — lower, -1.85
- GACCAAUCUGCCCUCAGAGCUCGAGAACAUCUUCGGAUGCAGAGGAGGCAGGCUUCGGUGGCGCGAUAGCGCCAACGUCCUCAACGUCCAAUGCAUCCCACCACAUGAUGAUGCCUGAAGAGCCUUGGUUUUAUG — lower, -0.824
- GACCAAUCUGGCCUCAGAGCUCGAGAACAUCUUCGGAUGCAGAGGAGGCAGGCUUCGGUGGCGUGAUAGCGCCAACGUCCUCAACCUCCAAUGCAUCCCACCACAUGAUGAUGCCUCAAGAGCCUUGGUUUUUUG — lower, -1.98
- GACCAAUCUGCCCUCAGAGCUCGAGAACAUCUUCGGAUGCAGAGGAGGCAGGCUUCGGUGGCGUGAUAGCGCCAACGUCCUCAACCUCCAAUCCAUCCCACCACAUGAUGAUGCCUGAAGAGCCUUGGUUUUUUG — lower, -0.827
- GACCAAUCUGCCCUCAGAGCUCGAGAACAUCUUCGGAUGCAGAGGAGGAAGGCUUCGGUGGCGCGAUAGCGCCAACGUCCUCAACCUUCAAUGUAUCCCACCACAUGAUGAUGCCUGAAGAGUCUUGGUUUGUUU — lower, -1.38
- GACCAAUCUGCCCUCAGAGCUCGAGAACAUCUUCGGAUGCAGAGGAGGCAGGCUUCGGUGGCGCGAUAGCGCCAACUUCCUCAACCUCCAAUGCCUCCCACAACAUGAUGAUGCCUGAAGAGCCUUGGUUUUUUG — lower, -3.06
- GACCAAUGUGCCCUCAGAGCUCGAGAACAUCUUCGGAUGCAGAGGAGGCAGGCUUCGGUGGAGCGAUAGCGCCAACGUCCUCAACCUCCAAUGCAUCCCACCACAUGAUGAUGCCUGAAGAGCCUUGGUUUUUUG — lower, -0.27
- GACCAAUCUGCCCUCAGAGCUCGAGAACAUCUUCGGAUGCAGAGGAGGCAGGCUUCGGUGGCGCGAUAGCGCCAACGUCCUCAACCUCCAAUGCAGCCCACCACAUGACGAUGCCUGAAGAGCCUUGGUUUUUUG — lower, -4.85
- GAACAAUCUGCCCUCAGAGCUCGAGAACAUCUUCGGAUGCAGAGGAGGCAGGCUUCGGUGGCGCGAUAGCGCCAACGUCCUCAACCUCCAAUGCAUCCCACCACAUGAUGAUGCCUGAAGAGACUUGGUUUUUUG — lower, -1.18
- GACCAAUCUGCCCUCAGAGCUCGAGAACCUCUUCGGAUGCAGAGGAAGCAGGCUUCGGUGGCGCGAUAUCGCCAACGUCCUCAACCUCCAAUGCAUCCCACCACAUGAUGAUGCCUGAAGAGCCUUGGUUUUUUG — lower, -1.84
- GACCAAUCAGCCCUCAGACCUCGAGAGCAUCUUCGGAUGCAGAGGAGGCAGGCUUCGGUGGCGCGAUAGCGCCAACGUCCUCAACCUCCAAUGCAUCCCACCACACGAUGAUGCCUGAAGAGCCUUGGUUUUUUG — lower, -4.96
- GACCAAUCUGCCCUCAGAGCUCGAGAACAUCUUCGGAUGCAGAGGAGGCAGGCUUCGGUGGCGCGAUAUCGCCAACGUCCUCAUCCUCCUAUGCAUCCCACCACAUGAUGAUGCCUGAAGAGCCUUGGUUUUUUG — lower, -0.387
- GACCAAUCUGCCCUCAGAGCUCGAGAACAUCUUCGGAUGCAAAGGAGGCAGGCUUCGGUUGCGCGAUAGCGCCAACGUCCUCAACCUCCAAUGCAUCCCACCACAUGAUGAUGCCUGAAGAGCCUUGGUUUUUUG — lower, -2.08
- GACCAAUCUGCCCUCAGAGCUCGAGAACGUCUUCGGAUGCAGAGGAAGCAUGCUUCGGUGGCGCGAUAGCGCCAACGUCCUCAACCUCCAAUGCAUCCCACCACAUGAUGAUGCCUGAAGAGGCUUGGAUUUGUG — lower, -5.68
- GACCAAUCUGCCCUCAGAGCUCGAGAACAUCUUCGGAUGCAGAGGAGGUAGGCUUCGGUGGCGCGAUAGCGCCAACGUCCUCAACCUCCAAGGCAUCCCACCACAUGAUGAUGCCUGAAGGGCCUUGGUUUUUUG — lower, -1.61
- GACCAAUCUGCUCUCAGAGCUCGAGAACGUCUUCGGAUGCAGAGUAGGCAGGCUUUGGUGGCGCGAUAGCGCCAACGUCCUCAACCUCAAUUGCAUCCCACCACAUGAUAAUGCCUGAAGAGCCUUUGUUUUUUG — lower, -5.23

Reference: the RNAGym collection of RNA variant scans (doi:10.1073/pnas.2313332121)
